Here are results for two molecules from patent publication US20190194356A1.

This assay concerns the target cynomolgus PCSK9 antigen (NCBI NM_001112660.1) (cynomolgus). The assay is described as follows: BLI (Octet Red 96), antibody on anti-human IgG Fc (AHC) biosensor, PCSK9 in solution, 1:1 model. Background: BLI is a label-free optical method that tracks binding on a fibre tip over time.

B1: monoclonal antibody 9M283 (antibody, human IgG2, lambda, V domains shown)
VH: QVQLVQSGAEVKKPGSSVKVSCKASAFTFDSFGMHWVRQAPGQGLEWMGLLWSDGSDEYYADSAKGRFTISRDNSKNTLYLQMNSLRSDDTAVYYCARALGAIYSYYAMDVWGQGTTVTVSS
VL: QSALTQPPSVSGSPGQSVTISCTGTSSNIGNQFVSWYQQLPGTAPKLMIYEYNKRPSGVPDRFSGSKSGNTASLTISGLQTGDEADYYCGSWDSSLSGYVFGTGTRVTVLG
As usually defined, the Kd is the free concentration of one partner at which half of the binding sites on the other are occupied at equilibrium, for simple one-to-one binding. As usually defined, the koff is the first-order rate constant of dissociation. What is called kon is the second-order rate constant of association. Molecule B1 registered a Kd of 80 pM, a koff of 2.46e-05 s⁻¹ and a kon of 308000 M⁻¹ s⁻¹.

B2: monoclonal antibody 9M284 (antibody, human IgG2, lambda)
heavy: QVQLVQSGAEVKKPGSSVKVSCKASAFTFDSFGMHWVRQAPGQGLEWMGLLWSDGSGEYYADSAKGRFTISRDNSKNTLYLQMNSLRSDDTAVYYCARAMGAIYYYYAMDVWGQGTTVTVSSASTKGPSVFPLAPCSRSTSESTAALGCLVKDYFPEPVTVSWNSGALTSGVHTFPAVLQSSGLYSLSSVVTVPSSNFGTQTYTCNVDHKPSNTKVDKTVERKCCVECPPCPAPPVAGPSVFLFPPKPKDTLMISRTPEVTCVVVDVSHEDPEVQFNWYVDGVEVHNAKTKPREEQFNSTFRVVSVLTVVHQDWLNGKEYKCKVSNKGLPAPIEKTISKTKGQPREPQVYTLPPSREEMTKNQVSLTCLVKGFYPSDIAVEWESNGQPENNYKTTPPMLDSDGSFFLYSKLTVDKSRWQQGNVFSCSVMHEALHNHYTQKSLSLSPG
light: QSALTQPPSVSGSPGQSVTISCTGTSSNIGNQFVSWYQQLPGTAPKLMIYEYNKRPSGVPDRFSGSKSGNTASLTISGLQTGDEADYYCGSWDSSLSGYVFGTGTRVTVLGQPKAAPSVTLFPPSSEELQANKATLVCLISDFYPGAVTVAWKADSSPVKAGVETTTPSKQSNNKYAASSYLSLTPEQWKSHRSYSCQVTHEGSTVEKTVAPTECS
Molecule B2 yielded a Kd of under 1 pM, a koff of under 1e-07 s⁻¹ and a kon of 298000 M⁻¹ s⁻¹.
